# Data: PMC9761383 (2022)
# B1: heat shock protein 47 (natural protein)
# chain: VPSEDRKLSDKATTLADRSTTLAFNLYHAMAKDKNMENILLSPVVVASSLGLVSLGGKATTASQAKAVLSADKLNDDYVHSGLSELLNEVSNSTARNVTWKIGNRLYGPASINFADDFVKNSKKHYNYEHSKINFRDKRSALKSINEWAAQTTDGKLPEVTKDVEKTDGALIVNAMFFKPHWDEKFHHKMVDNRGFMVTRSYTVGVPMMHRTGLYNYYDDEAEKLQVVEMPLAHKLSSMIFIMPNHVEPLERVEKLLNREQLKTWASKMKKRSVAISLPKVVLEVSHDLQKHLADLGLTEAIDKTKADLSKISGKKDLYLSNVFHAAALEWDTDGNPYDADIYGREEMRNPKLFYADHPFIFMIKDSKTNSILFIGRLVRPKGDKMRDEL
# How the values were obtained:
# [1] = biological target: collagen α1α1α2(IV) purified from conditioned culture medium of WT PFHR9 cells (mouse (endogenous in PFHR9)); experiment: rotary shadow electron microscopy; purified collagen α1α1α2(IV) (about 100 μg/ml) in 0.2 M acetic acid, 70% glycerol, sprayed on mica, carbon/platinum shadowed; molecules counted (WT n = 690, LH3 KO n = 295); hexamers = two heterotrimers, dodecamers = four heterotrimers
# [2] = biological target: collagen α1α1α2(IV) purified from conditioned culture medium of LH3 KO PFHR9 cells (mouse (endogenous in PFHR9)); experiment: as above
# [3] = biological target: T1, collagen α1α1α2(IV) purified from conditioned culture medium of WT PFHR9 cells (mouse (endogenous in PFHR9), hydroxylysines, almost fully modified to glucosyl galactosyl Hyl; 4-hydroxyproline; 3-hydroxyproline | hydroxylysines, almost fully modified to glucosyl galactosyl Hyl; 4-hydroxyproline; …); experiment: SPR
# T1 sequence (P02463 28-1669, chain 1 of 2): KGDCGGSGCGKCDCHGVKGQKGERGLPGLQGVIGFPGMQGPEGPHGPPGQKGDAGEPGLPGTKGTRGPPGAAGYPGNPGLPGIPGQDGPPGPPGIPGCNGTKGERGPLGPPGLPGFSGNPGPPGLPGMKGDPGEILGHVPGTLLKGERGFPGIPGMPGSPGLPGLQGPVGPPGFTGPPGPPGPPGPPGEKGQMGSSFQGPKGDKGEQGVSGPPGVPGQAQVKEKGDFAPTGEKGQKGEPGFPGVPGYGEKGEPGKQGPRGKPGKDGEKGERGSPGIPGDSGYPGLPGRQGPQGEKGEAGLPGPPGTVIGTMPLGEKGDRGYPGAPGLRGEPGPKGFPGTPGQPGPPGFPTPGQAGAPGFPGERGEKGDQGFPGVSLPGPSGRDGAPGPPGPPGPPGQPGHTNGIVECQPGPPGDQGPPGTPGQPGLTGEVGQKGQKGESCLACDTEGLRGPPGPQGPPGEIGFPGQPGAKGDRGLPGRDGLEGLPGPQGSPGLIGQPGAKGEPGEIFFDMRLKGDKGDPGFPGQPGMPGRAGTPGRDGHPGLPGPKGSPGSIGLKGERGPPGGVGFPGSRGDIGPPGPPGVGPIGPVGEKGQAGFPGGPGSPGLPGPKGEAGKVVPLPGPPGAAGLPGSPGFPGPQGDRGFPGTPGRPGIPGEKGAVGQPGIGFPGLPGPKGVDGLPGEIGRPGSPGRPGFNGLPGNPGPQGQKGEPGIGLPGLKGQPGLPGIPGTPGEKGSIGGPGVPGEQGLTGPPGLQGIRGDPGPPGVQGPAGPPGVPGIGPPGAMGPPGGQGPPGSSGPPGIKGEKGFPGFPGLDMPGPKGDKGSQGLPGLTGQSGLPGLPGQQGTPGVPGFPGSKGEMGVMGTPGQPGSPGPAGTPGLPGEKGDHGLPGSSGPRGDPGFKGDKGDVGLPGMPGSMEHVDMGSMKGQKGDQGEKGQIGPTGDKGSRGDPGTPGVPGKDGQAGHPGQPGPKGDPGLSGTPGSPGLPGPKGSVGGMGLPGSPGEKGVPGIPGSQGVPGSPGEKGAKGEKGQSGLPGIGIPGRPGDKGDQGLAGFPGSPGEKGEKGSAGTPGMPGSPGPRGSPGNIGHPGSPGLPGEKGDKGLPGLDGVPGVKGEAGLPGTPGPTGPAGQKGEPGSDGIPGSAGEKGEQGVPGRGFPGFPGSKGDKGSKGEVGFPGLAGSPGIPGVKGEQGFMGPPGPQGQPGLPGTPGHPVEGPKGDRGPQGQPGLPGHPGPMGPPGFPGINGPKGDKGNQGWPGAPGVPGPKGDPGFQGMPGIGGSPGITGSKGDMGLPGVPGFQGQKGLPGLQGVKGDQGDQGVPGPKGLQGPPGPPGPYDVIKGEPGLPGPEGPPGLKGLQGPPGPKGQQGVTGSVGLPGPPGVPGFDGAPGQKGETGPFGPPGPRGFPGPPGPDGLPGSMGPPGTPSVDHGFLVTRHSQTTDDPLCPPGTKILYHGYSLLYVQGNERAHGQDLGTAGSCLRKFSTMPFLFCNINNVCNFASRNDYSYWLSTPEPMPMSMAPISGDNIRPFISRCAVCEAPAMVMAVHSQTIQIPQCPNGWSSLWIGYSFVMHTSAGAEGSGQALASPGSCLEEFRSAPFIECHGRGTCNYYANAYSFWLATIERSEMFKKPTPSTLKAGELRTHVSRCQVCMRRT
# T1 sequence (P08122 26-1707, chain 2 of 2, further chain): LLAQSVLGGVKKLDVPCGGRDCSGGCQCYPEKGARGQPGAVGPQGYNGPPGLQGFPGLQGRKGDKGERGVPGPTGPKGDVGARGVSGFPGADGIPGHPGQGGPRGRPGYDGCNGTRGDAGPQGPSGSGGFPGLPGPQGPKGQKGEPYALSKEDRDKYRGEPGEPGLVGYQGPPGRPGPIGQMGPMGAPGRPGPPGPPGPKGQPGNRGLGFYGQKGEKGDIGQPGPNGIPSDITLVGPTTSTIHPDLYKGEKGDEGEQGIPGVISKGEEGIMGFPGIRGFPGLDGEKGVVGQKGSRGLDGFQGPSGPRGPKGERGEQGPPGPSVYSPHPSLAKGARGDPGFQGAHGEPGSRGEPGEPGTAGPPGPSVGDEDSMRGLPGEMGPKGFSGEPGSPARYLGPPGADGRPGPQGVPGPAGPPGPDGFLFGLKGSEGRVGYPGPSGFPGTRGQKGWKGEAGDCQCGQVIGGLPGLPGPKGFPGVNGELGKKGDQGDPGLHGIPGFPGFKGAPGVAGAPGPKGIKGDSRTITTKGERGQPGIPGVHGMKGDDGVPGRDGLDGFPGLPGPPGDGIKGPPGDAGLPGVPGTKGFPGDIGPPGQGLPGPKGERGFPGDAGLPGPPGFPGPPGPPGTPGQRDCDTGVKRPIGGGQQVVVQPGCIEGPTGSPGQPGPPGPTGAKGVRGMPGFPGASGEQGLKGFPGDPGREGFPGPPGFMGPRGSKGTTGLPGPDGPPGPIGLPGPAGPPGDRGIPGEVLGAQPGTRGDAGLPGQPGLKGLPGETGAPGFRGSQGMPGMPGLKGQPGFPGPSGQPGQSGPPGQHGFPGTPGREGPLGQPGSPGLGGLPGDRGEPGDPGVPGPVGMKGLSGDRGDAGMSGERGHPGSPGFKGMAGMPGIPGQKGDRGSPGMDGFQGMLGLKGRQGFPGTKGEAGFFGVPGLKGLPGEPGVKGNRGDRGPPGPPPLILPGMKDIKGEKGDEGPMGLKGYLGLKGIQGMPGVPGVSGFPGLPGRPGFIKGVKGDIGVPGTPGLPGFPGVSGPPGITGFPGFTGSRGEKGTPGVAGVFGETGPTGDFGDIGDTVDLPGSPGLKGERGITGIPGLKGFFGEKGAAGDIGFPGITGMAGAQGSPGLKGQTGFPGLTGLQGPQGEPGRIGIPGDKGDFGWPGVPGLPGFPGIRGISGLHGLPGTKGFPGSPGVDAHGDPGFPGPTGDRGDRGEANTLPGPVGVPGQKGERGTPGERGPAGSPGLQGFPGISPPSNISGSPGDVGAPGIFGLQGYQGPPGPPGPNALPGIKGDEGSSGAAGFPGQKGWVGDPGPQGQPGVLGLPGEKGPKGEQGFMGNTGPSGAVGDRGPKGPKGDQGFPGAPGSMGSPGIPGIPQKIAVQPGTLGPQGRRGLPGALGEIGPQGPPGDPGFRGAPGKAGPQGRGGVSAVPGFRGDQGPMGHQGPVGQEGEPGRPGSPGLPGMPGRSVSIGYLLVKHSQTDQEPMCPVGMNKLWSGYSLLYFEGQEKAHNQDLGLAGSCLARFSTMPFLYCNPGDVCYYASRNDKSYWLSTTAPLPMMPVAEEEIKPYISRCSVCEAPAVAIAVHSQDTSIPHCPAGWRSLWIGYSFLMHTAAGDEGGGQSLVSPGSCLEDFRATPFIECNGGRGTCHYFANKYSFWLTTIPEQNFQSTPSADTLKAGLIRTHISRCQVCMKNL
# [4] = biological target: T2, collagen α1α1α2(IV) purified from conditioned culture medium of LH3 KO PFHR9 cells (mouse (endogenous in PFHR9), more unmodified lysines (significantly fewer hydroxylysines)); high occupancy of galactosyl Hyl but not glucosyl galactosyl Hyl; prolyl 4 hydroxylation reduced | more unmodified lysines (significantly …); experiment: SPR
# T2 sequence (P02463 28-1669, chain 1 of 2): as the sequence (P02463 28-1669, chain 1 of 2) above
# T2 sequence (P08122 26-1707, chain 2 of 2, further chain): as the sequence (P08122 26-1707, chain 2 of 2, further chain) above
# [5] = biological target: T1, collagen α1α1α2(IV) purified from …; experiment: SPR; remark: listed apart in the source
# [6] = biological target: T2, collagen α1α1α2(IV) purified from …; experiment: SPR; remark: listed apart in the source
molecule,measurement,setting,value
collagen α1α1α2(IV) purified from conditioned culture medium of WT PFHR9 cells (complex),percent of molecules seen as dodecamers (four heterotrimers),[1],9%
same,percent of molecules seen as hexamers (two heterotrimers),[1],8.5%
collagen α1α1α2(IV) purified from conditioned culture medium of LH3 KO PFHR9 cells (complex),percent of molecules seen as shortened hexamers (two heterotrimers),[2],7.8%
B1,Kd,[3],17.9 nM
same,Kd,[4],116 nM
same,koff,[5],0.0226 s⁻¹
same,koff,[6],0.107 s⁻¹
